Test [1] concerns the target T1, human GITR expressed on cells (human, UniProt Q9Y5U5 26-241).
T1 construct: whole, on cells; also called TNFRSF18; CD357
T1 sequence (looked up): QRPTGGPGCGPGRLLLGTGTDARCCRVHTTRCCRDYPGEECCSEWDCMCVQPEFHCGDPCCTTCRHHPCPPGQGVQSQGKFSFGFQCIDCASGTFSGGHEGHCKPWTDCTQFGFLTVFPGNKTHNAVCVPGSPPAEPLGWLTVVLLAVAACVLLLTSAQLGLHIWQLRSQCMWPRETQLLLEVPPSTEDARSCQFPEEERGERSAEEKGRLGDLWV
Nature of the test: flow cytometry (FACS), MFI, CHO cells expressing human GITR. Here is the method:
(§1) Anti-GITR/CD137 bi-specific antibodies were analyzed by FACS for their binding properties to human GITR and/or human CD137 expressed on CHO cells. Briefly, cultured cells were harvested, counted and cell viability was evaluated using the Trypan Blue exclusion method. Viable cells were then adjusted to 2×10⁶ cells per mL in PBS containing 2% BSA. 100 μL of this cell suspension were further aliquoted per well into a V-bottom 96-well plate. […] After incubation for 2 hours at 4° C., cells were centrifuged (3 min, 1000× g), washed with 250 μL/well BSA-containing FACS Stain Buffer, resuspended and incubated for an additional 1 hour at 4° C. with 100 μL/well fluorochrome-conjugated anti-IgG antibody for detection of the bisepecific antibody. Cells were then washed with 250 μL/well BSA-containing FACS Stain Buffer, resuspended in 100 μL/well FACS Stain Buffer, acquired and analyzed using a FACS machine. Binding of the bispecific antibodies to human GITR or human CD137 expressing CHO cells were evaluated and the mean fluorescence intensity is plotted in histograms or dot plots.
In general terms: A flow cytometer gives signals particle by particle.

In test [2] the target is T2, human CD137 expressed on cells (human, UniProt Q07011 24-255).
T2 construct: whole, on cells; also called 4-1BB; TNFRSF9
T2 sequence (Q07011 24-255): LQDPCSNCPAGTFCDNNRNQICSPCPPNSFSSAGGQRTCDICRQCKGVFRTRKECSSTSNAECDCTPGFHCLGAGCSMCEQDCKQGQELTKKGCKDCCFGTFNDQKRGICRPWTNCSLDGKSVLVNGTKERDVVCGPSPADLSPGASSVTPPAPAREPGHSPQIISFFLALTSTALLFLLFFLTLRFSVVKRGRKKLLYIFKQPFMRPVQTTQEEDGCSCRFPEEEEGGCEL
Nature of the test: FACS on CHO cells expressing human CD137 (MFI). The procedure: as §1

Test [3] deals with T2, human CD137 expressed on cells. Nature of the test: FACS on CHO cells expressing human CD137 (MFI). Here is the method: as §1, with “Anti-OX40/CD137” for “Anti-GITR/CD137”, “OX40” for “GITR”, “1000×g),” for “1000× g),”
The source holds these as a separate data set.

The target of test [4] is T3, human OX40 expressed on CHO cells (human, UniProt P43489 29-277).
T3 construct: whole, on cells
T3 sequence (looked up): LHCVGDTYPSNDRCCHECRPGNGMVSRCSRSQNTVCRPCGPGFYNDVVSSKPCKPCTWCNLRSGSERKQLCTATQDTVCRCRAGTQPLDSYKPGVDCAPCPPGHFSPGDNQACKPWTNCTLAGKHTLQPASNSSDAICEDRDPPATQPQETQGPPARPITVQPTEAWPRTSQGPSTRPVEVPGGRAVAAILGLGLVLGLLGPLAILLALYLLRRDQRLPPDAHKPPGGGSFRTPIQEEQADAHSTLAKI
Nature of the test: FACS on CHO cells expressing human OX40 (MFI). Here is the method: as §1, with “Anti-OX40/CD137” for “Anti-GITR/CD137”, “OX40” for “GITR”, “1000×g),” for “1000× g),”

These results are taken from US20230406950A1 (LYVGEN BIOPHARMA, published 2023).

One may read the EC50 (read off the curve) as the concentration that produces a half-maximal response. The low end stands for greater potency, the high end for weaker potency.

Where two headings read alike, the source gives them in different places.

B1: Ly748 (bispecific antibody, human IgG1, kappa)
heavy: QVQLVQSGAEVKKPGASVKVSCKASGYTFAGFEMHWVRQAPGQGLEWMGAIDPKTGGTDYNQKFKDRVTMTRDTSISTAYMELSRLRSDDTAVYYCARDLGYFDVWGQGTLVTVSSASTKGPSVFPLAPSSKSTSGGTAALGCLVKDYFPEPVTVSWNSGALTSGVHTFPAVLQSSGLYSLSSVVTVPSSSLGTQTYICNVNHKPSNTKVDKKVEPKSCDKTHTCPPCPAPELLGPSVFLFPPKPKDTLMISRTPEVTCVVVDVSHEDPEVKFNWYVDGVEVHNAKTKPREEQYNSTYRVVSVLTVLHQDWLNGKEYKCKVSNKALPAPIEKTISKAKGQPREPQVYTLPPSREEMTKNQVSLTCLVKGFYPSDIAVEWESNGQPENNYKTTPPVLDSDGSFFLYSKLTVDKSRWQQGNVFSCSVMHEALHNHYTQKSLSLSPGK
light: DIQMTQSPSSLSASVGDRVTITCRASQDIRSNLNWYQQKPGGAVKLLIYYTSRLHSGVPSRFSGSGSGTDYTLTISSLQPEDFATYFCQQSEKLPRTFGGGTKVEIRRTVAAPSVFIFPPSDEQLKSGTASVVCLLNNFYPREAKVQWKVDNALQSGNSQESVTEQDSKDSTYSLSSTLTLSKADYEKHKVYACEVTHQGLSSPVTKSFNRGECGGGGSGGGGSGGGGSGGGGSDTVLTQSPATLSLSPGERATLSCRASKSVRTGMHWYQQKPGQAPRLLVYGASNLESGIPARFSGSGSGTDFTLTISSLEPEDFATYFCHQSWNHFTFGQGTKLEIKGGGGSGGGGSGGGGSGGGGSQVQLQESGPGLVKPSETLSLTCTVSGFSLTSYNVHWIRQPPGKGLEWIGVIWSGVRTDYNSVLKSRVTISVDTSKNQFSLKLSSVTAADTAVYYCARGTYDANYHDVMDAWGQGTMVTVSS
notes: Anti-GITR/CD137: Ly1630 heavy chain; Ly1630 light chain fused to TM677 scFv (VL-VH)
In the case of B1, in test [1], the binding result is given as “binds”.

B2: Ly750 (bispecific antibody, human IgG1, kappa)
heavy: QVQLQESGPGLVKPSETLSLTCTVSGFSLTSYNVHWIRQPPGKGLEWIGVIWSGVRTDYNSVLKSRVTISVDTSKNQFSLKLSSVTAADTAVYYCARGTYDANYHDVMDAWGQGTMVTVSSASTKGPSVFPLAPSSKSTSGGTAALGCLVKDYFPEPVTVSWNSGALTSGVHTFPAVLQSSGLYSLSSVVTVPSSSLGTQTYICNVNHKPSNTKVDKKVEPKSCDKTHTCPPCPAPELLGPSVFLFPPKPKDTLMISRTPEVTCVVVDVSHEDPEVKFNWYVDGVEVHNAKTKPREEQYNSTYRVVSVLTVLHQDWLNGKEYKCKVSNKALPAPIEKTISKAKGQPREPQVYTLPPSREEMTKNQVSLTCLVKGFYPSDIAVEWESNGQPENNYKTTPPVLDSDGSFFLYSKLTVDKSRWQQGNVFSCSVMHEALHNHYTQKSLSLSPGGGGGSGGGGSGGGGSGGGGSDIQMTQSPSSLSASVGDRVTITCRASQDIRSNLNWYQQKPGGAVKLLIYYTSRLHSGVPSRFSGSGSGTDYTLTISSLQPEDFATYFCQQSEKLPRTFGGGTKVEIRGGGGSGGGGSGGGGSGGGGSQVQLVQSGAEVKKPGASVKVSCKASGYTFAGFEMHWVRQAPGQGLEWMGAIDPKTGGTDYNQKFKDRVTMTRDTSISTAYMELSRLRSDDTAVYYCARDLGYFDVWGQGTLVTVSS
light: DTVLTQSPATLSLSPGERATLSCRASKSVRTGMHWYQQKPGQAPRLLVYGASNLESGIPARFSGSGSGTDFTLTISSLEPEDFATYFCHQSWNHFTFGQGTKLEIKRTVAAPSVFIFPPSDEQLKSGTASVVCLLNNFYPREAKVQWKVDNALQSGNSQESVTEQDSKDSTYSLSSTLTLSKADYEKHKVYACEVTHQGLSSPVTKSFNRGEC
notes: Anti-GITR/CD137: TM677 heavy chain fused to Ly1630 scFv (VL-VH)
With B2, in test [2], the “EC50 (read off the curve)” value is around 0.2 µg/mL. For the same molecule, the binding result in test [1] is recorded as “binds”.

B3: Ly751 (bispecific antibody, human IgG1, kappa)
heavy: QVQLQESGPGLVKPSETLSLTCTVSGFSLTSYNVHWIRQPPGKGLEWIGVIWSGVRTDYNSVLKSRVTISVDTSKNQFSLKLSSVTAADTAVYYCARGTYDANYHDVMDAWGQGTMVTVSSASTKGPSVFPLAPSSKSTSGGTAALGCLVKDYFPEPVTVSWNSGALTSGVHTFPAVLQSSGLYSLSSVVTVPSSSLGTQTYICNVNHKPSNTKVDKKVEPKSCDKTHTCPPCPAPELLGPSVFLFPPKPKDTLMISRTPEVTCVVVDVSHEDPEVKFNWYVDGVEVHNAKTKPREEQYNSTYRVVSVLTVLHQDWLNGKEYKCKVSNKALPAPIEKTISKAKGQPREPQVYTLPPSREEMTKNQVSLTCLVKGFYPSDIAVEWESNGQPENNYKTTPPVLDSDGSFFLYSKLTVDKSRWQQGNVFSCSVMHEALHNHYTQKSLSLSPGGGGGSGGGGSGGGGSGGGGSQVQLVQSGAEVKKPGASVKVSCKASGYTFAGFEMHWVRQAPGQGLEWMGAIDPKTGGTDYNQKFKDRVTMTRDTSISTAYMELSRLRSDDTAVYYCARDLGYFDVWGQGTLVTVSSGGGGSGGGGSGGGGSGGGGSDIQMTQSPSSLSASVGDRVTITCRASQDIRSNLNWYQQKPGGAVKLLIYYTSRLHSGVPSRFSGSGSGTDYTLTISSLQPEDFATYFCQQSEKLPRTFGGGTKVEIR
light: DTVLTQSPATLSLSPGERATLSCRASKSVRTGMHWYQQKPGQAPRLLVYGASNLESGIPARFSGSGSGTDFTLTISSLEPEDFATYFCHQSWNHFTFGQGTKLEIKRTVAAPSVFIFPPSDEQLKSGTASVVCLLNNFYPREAKVQWKVDNALQSGNSQESVTEQDSKDSTYSLSSTLTLSKADYEKHKVYACEVTHQGLSSPVTKSFNRGEC
notes: Anti-GITR/CD137: TM677 heavy chain fused to Ly1630 scFv (VH-VL); TM677 light chain
In the case of B3, the “EC50 (read off the curve)” value in test [2] was around 0.2 µg/mL. Moreover, in test [1], the binding result is “binds”.

B4: Ly762 (bispecific antibody, human IgG1, kappa)
heavy: QVQLVQSGAEVKKPGASVKVSCKASGYTFAGFEMHWVRQAPGQGLEWMGAIDPKTGGTDYNQKFKDRVTMTRDTSISTAYMELSRLRSDDTAVYYCARDLGYFDVWGQGTLVTVSSASTKGPSVFPLAPSSKSTSGGTAALGCLVKDYFPEPVTVSWNSGALTSGVHTFPAVLQSSGLYSLSSVVTVPSSSLGTQTYICNVNHKPSNTKVDKKVEPKSCDKTHTCPPCPAPELLGPSVFLFPPKPKDTLMISRTPEVTCVVVDVSHEDPEVKFNWYVDGVEVHNAKTKPREEQYNSTYRVVSVLTVLHQDWLNGKEYKCKVSNKALPAPIEKTISKAKGQPREPQVYTLPPSREEMTKNQVSLTCLVKGFYPSDIAVEWESNGQPENNYKTTPPVLDSDGSFFLYSKLTVDKSRWQQGNVFSCSVMHEALHNHYTQKSLSLSPGGGGGSGGGGSGGGGSGGGGSDIQMTQSPSSLSASVGDRVTITCRASQDISNYLNWYQQKPGKAPKLLIYYTSRLRSGVPSRFSGSGSGTDFTLTISSLQPEDFATYYCQQGHTLPPTFGQGTKVEIKGGGGSGGGGSGGGGSGGGGSEVQLVQSGAEVKKPGASVKVSCKASGYTFTDSYMSWVRQAPGQGLEWIGDMYPDNGDSSYNQKFRERVTITRDTSTSTAYLELSSLRSEDTAVYYCVLAPRWYFSVWGQGTLVTVSS
light: DIQMTQSPSSLSASVGDRVTITCRASQDIRSNLNWYQQKPGGAVKLLIYYTSRLHSGVPSRFSGSGSGTDYTLTISSLQPEDFATYFCQQSEKLPRTFGGGTKVEIRRTVAAPSVFIFPPSDEQLKSGTASVVCLLNNFYPREAKVQWKVDNALQSGNSQESVTEQDSKDSTYSLSSTLTLSKADYEKHKVYACEVTHQGLSSPVTKSFNRGEC
notes: Ly1630 light chain
As for B4, the “EC50 (read off the curve)” value in test [3] was around 0.1 µg/mL. In test [4], the binding result is reported as “binds”.

B5: TM677 (antibody, human IgG1, kappa, V domains shown)
VH: QVQLQESGPGLVKPSETLSLTCTVSGFSLTSYNVHWIRQPPGKGLEWIGVIWSGVRTDYNSVLKSRVTISVDTSKNQFSLKLSSVTAADTAVYYCARGTYDANYHDVMDAWGQGTMVTVSS
VL: DTVLTQSPATLSLSPGERATLSCRASKSVRTGMHWYQQKPGQAPRLLVYGASNLESGIPARFSGSGSGTDFTLTISSLEPEDFATYFCHQSWNHFTFGQGTKLEIKR
notes: Humanized anti-GITR antibody with VL back mutations; also called humanized LYV392 antibody (VH-1/IgG1 mut, VL-2/kappa)
With B5, in test [1], the “EC50 (read off the curve)” value is around 0.7 µg/mL.

B6: TM685 (antibody, human IgG1, kappa, V domains shown)
VH: QVQLQESGPGLVKPSETLSLTCTVSGFSLTSYNVHWIRQPPGKGLEWIGVIWSGVRTDYNSVLKPRVTISVDTSKNQFSLKLSSVTAADTAVYYCARGTYDDNYHDVMDAWGQGTLVTVSS
VL: EIVLTQSPATLSLSPGERATLSCRASKSVRTGMHWYQQKPGQAPRLLIYGASNLESGIPARFSGSGSGTDFTLTISSLEPEDFAVYYCQQSWNHFTFGQGTKLEIKR
notes: Humanized anti-GITR antibody; also called humanized LYV396 antibody (LYV396_VH-1/IgG1mut, LYV396_VL-1/kappa)
As for B6, the “EC50 (read off the curve)” value in test [1] is around 0.7 µg/mL.
